Laboratory results taken from patent US9096681B2, “XBP1, CD138, and CS1 peptides” (Dana-Farber Cancer Institute, Inc., priority 2008, dated 2015).

Target: HLA-A2 molecules on the surface of human T2 cells (Homo sapiens, UniProt P04439, D140Y/D185E/D98H/E176V/E277Q/G131W/G231S/I119V/I121R/I166T/I218V/L300P/L318F/N151K/N90K/P208A/P217A/Q86G/Q94H/R138H/R169H/T345S)
Assay: Peptide stability assay (peptide/HLA-A2 binding stability post-Brefeldin A)

| Sequence | HLA-A2 binding stability (CD138 peptide (FIG. 12), 0 hr, 2 hr, 4 hr, 6 hr, or overnight) | HLA-A2 binding stability (non-spliced XBP1 peptides (FIG. 2), 0, 2, 4, 6 and 18 hours post-Brefeldin A) |
| --- | --- | --- |
| GLVGLIFAV (listed as Homo sapiens) [CD138 #2p, native CD138 peptide] | nearly equivalent to influenza virus protein matrix peptide58-66 |  |
| NISPWILAV (listed as Homo sapiens) [XBP1184-192, native non-spliced XBP1 peptide] |  | significantly lower level of HLA-A2 binding stability as compared to the influenza virus protein matrix peptide58-66 |
